The text below walks through data of patent US20240025984A1 (FLUX THERAPEUTICS, published 2024).

To fix the notation:
T1: SYNGAP1-nanoluc-alfa-tag-fusion
T1 chain: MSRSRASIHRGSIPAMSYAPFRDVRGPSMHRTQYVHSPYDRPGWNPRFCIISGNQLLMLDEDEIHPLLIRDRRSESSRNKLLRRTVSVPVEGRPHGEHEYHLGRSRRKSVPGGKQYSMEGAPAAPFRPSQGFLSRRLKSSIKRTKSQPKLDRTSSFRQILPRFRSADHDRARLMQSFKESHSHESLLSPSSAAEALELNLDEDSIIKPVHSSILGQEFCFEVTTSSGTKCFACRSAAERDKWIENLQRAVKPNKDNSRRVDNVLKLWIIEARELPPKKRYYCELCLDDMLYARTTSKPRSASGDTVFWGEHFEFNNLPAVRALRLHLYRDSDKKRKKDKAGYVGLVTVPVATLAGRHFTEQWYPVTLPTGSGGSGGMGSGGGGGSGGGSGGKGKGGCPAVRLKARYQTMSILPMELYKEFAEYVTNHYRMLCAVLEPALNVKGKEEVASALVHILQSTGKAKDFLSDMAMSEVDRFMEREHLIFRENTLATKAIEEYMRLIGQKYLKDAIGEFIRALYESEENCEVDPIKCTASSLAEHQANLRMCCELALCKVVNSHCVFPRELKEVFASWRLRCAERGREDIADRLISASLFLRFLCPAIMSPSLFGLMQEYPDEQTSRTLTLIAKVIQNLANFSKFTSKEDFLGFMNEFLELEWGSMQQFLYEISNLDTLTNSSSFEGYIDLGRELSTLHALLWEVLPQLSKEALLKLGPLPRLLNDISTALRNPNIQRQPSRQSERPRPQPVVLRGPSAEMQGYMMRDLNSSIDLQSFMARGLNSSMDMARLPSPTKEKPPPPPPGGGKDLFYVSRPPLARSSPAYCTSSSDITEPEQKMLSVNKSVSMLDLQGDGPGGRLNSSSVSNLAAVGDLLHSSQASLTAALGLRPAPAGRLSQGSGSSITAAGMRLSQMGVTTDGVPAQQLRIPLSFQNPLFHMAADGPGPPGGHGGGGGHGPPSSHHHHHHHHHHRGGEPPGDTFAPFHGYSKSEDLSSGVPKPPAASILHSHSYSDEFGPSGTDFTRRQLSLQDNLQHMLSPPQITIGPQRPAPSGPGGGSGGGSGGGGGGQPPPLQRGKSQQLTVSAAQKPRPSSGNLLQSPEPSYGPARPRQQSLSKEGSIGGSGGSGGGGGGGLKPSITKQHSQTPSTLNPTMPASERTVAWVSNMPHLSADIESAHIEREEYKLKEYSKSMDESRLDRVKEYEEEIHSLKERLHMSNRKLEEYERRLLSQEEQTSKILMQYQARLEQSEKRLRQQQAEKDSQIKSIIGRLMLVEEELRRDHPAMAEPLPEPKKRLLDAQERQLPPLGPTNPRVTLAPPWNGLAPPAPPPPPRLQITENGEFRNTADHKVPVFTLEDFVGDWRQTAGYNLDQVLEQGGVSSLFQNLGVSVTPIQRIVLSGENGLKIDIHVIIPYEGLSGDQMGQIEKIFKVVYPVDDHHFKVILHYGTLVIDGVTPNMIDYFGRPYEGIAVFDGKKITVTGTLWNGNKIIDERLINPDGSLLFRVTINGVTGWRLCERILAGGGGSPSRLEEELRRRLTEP

B1: FireflyLuciferase-P2A-anti-syngap1_FLX00153-Cezanne (other)
chain: MEDAKNIKKGPAPFYPLEDGTAGEQLHKAMKRYALVPGTIAFTDAHIEVDITYAEYFEMSVRLAEAMKRYGLNTNHRIVVCSENSLQFFMPVLGALFIGVAVAPANDIYNERELLNSMGISQPTVVFVSKKGLQKILNVQKKLPIIQKIIIMDSKTDYQGFQSMYTFVTSHLPPGFNEYDFVPESFDRDKTIALIMNSSGSTGLPKGVALPHRTACVRFSHARDPIFGNQIIPDTAILSVVPFHHGFGMFTTLGYLICGFRVVLMYRFEEELFLRSLQDYKIQSALLVPTLFSFFAKSTLIDKYDLSNLHEIASGGAPLSKEVGEAVAKRFHLPGIRQGYGLTETTSAILITPEGDDKPGAVGKVVPFFEAKVVDLDTGKTLGVNQRGELCVRGPMIMSGYVNNPEATNALIDKDGWLHSGDIAYWDEDEHFFIVDRLKSLIKYKGYQVAPAELESILLQHPNIFDAGVAGLPDDDAGELPAAVVVLEHGKTMTEKEIVDYVASQVTTAKKLRGGVVFVDEVPKGLTGKLDARKIREILIKAKKGGKIAVTRLKGSGATNFSLLKQAGDVEENPGPRSGTGSSGQLQLVESGGGLVQPGESLRLSCAASGFTFSNYRMYWVRMAPGKGLEWVSDIDRSGTYTYYADSVKGRFAISRDNAKNTVYLQMNSLKPEDTAVYYCAADRRLIVDLTPEVYDHWGQGTQVTVSSGAPGSGPPSFSEGSGGSRTPEKGFSDREPTRPPRPILQRQDDIVQEKRLSRGISHASSSIVSLARSHVSSNGGGGGSNEHPLEMPICAFQLPDLTVYNEDFRSFIERDLIEQSMLVALEQAGRLNWWVSVDPTSQRLLPLATTGDGNCLLHAASLGMWGFHDRDLMLRKALYALMEKGVEKEALKRRWRWQQTQQNKESGLVYTEDEWQKEWNELIKLASSEPRMHLGTNGANCGGVESSEEPVYESLEEFHVFVLAHVLRRPIVVVADTMLRDSGGEAFAPIPFGGIYLPLEVPASQCHRSPLVLAYDQAHFSALVSMEQKENTKEQAVIPLTDSEYKLLPLHFAVDPGKGWEWGKDDSDNVRLASVILSLEVKLHLLHSYMNVKWIPLSSDAQAPLAQ
B2: FireflyLuciferase-P2A-anti-syngap1_FLX00156-Cezanne (other)
chain: MEDAKNIKKGPAPFYPLEDGTAGEQLHKAMKRYALVPGTIAFTDAHIEVDITYAEYFEMSVRLAEAMKRYGLNTNHRIVVCSENSLQFFMPVLGALFIGVAVAPANDIYNERELLNSMGISQPTVVFVSKKGLQKILNVQKKLPIIQKIIIMDSKTDYQGFQSMYTFVTSHLPPGFNEYDFVPESFDRDKTIALIMNSSGSTGLPKGVALPHRTACVRFSHARDPIFGNQIIPDTAILSVVPFHHGFGMFTTLGYLICGFRVVLMYRFEEELFLRSLQDYKIQSALLVPTLFSFFAKSTLIDKYDLSNLHEIASGGAPLSKEVGEAVAKRFHLPGIRQGYGLTETTSAILITPEGDDKPGAVGKVVPFFEAKVVDLDTGKTLGVNQRGELCVRGPMIMSGYVNNPEATNALIDKDGWLHSGDIAYWDEDEHFFIVDRLKSLIKYKGYQVAPAELESILLQHPNIFDAGVAGLPDDDAGELPAAVVVLEHGKTMTEKEIVDYVASQVTTAKKLRGGVVFVDEVPKGLTGKLDARKIREILIKAKKGGKIAVTRLKGSGATNFSLLKQAGDVEENPGPRSGTGSSGQVQLVESGGGLVQPGGSLRLACAASGFTFGTHAMHWVRWAPGKGFEWVSTISSGGGGTRYADSVKGRFTISRDNAKNTVYLQMDNLKPEDTAVYYCNSPSNIANDNWGQGTQVTVSSGGGGSGGGGSGGGGSGGGGSQVQLVESGGGLVQPGGSLRLACAASGFTFGTHAMHWVRWAPGKGFEWVSTISSGGGGTRYADSVKGRFTISRDNAKNTVYLQMDNLKPEDTAVYYCNSPSNIANDNWGQGTQVTVSSGAPGSGPPSFSEGSGGSRTPEKGFSDREPTRPPRPILQRQDDIVQEKRLSRGISHASSSIVSLARSHVSSNGGGGGSNEHPLEMPICAFQLPDLTVYNEDFRSFIERDLIEQSMLVALEQAGRLNWWVSVDPTSQRLLPLATTGDGNCLLHAASLGMWGFHDRDLMLRKALYALMEKGVEKEALKRRWRWQQTQQNKESGLVYTEDEWQKEWNELIKLASSEPRMHLGTNGANCGGVESSEEPVYESLEEFHVFVLAHVLRRPIVVVADTMLRDSGGEAFAPIPFGGIYLPLEVPASQCHRSPLVLAYDQAHFSALVSMEQKENTKEQAVIPLTDSEYKLLPLHFAVDPGKGWEWGKDDSDNVRLASVILSLEVKLHLLHSYMNVKWIPLSSDAQAPLAQ
B3: FireflyLuciferase-P2A-anti-syngap1_FLX00152-Cezanne (other)
chain: MEDAKNIKKGPAPFYPLEDGTAGEQLHKAMKRYALVPGTIAFTDAHIEVDITYAEYFEMSVRLAEAMKRYGLNTNHRIVVCSENSLQFFMPVLGALFIGVAVAPANDIYNERELLNSMGISQPTVVFVSKKGLQKILNVQKKLPIIQKIIIMDSKTDYQGFQSMYTFVTSHLPPGFNEYDFVPESFDRDKTIALIMNSSGSTGLPKGVALPHRTACVRFSHARDPIFGNQIIPDTAILSVVPFHHGFGMFTTLGYLICGFRVVLMYRFEEELFLRSLQDYKIQSALLVPTLFSFFAKSTLIDKYDLSNLHEIASGGAPLSKEVGEAVAKRFHLPGIRQGYGLTETTSAILITPEGDDKPGAVGKVVPFFEAKVVDLDTGKTLGVNQRGELCVRGPMIMSGYVNNPEATNALIDKDGWLHSGDIAYWDEDEHFFIVDRLKSLIKYKGYQVAPAELESILLQHPNIFDAGVAGLPDDDAGELPAAVVVLEHGKTMTEKEIVDYVASQVTTAKKLRGGVVFVDEVPKGLTGKLDARKIREILIKAKKGGKIAVTRLKGSGATNFSLLKQAGDVEENPGPRSGTGSSGQVQLVESGGGLVQPGGSLRLSCAASGFSFSNFPMMWVRQAPGKGREWVADINQDGRNTYYADSVKGRFTISRDNAKTTVYLQMNNLNPEDTAVYYCQAIRTTTHFDSWGQGTQVTVSSGAPGSGPPSFSEGSGGSRTPEKGFSDREPTRPPRPILQRQDDIVQEKRLSRGISHASSSIVSLARSHVSSNGGGGGSNEHPLEMPICAFQLPDLTVYNEDFRSFIERDLIEQSMLVALEQAGRLNWWVSVDPTSQRLLPLATTGDGNCLLHAASLGMWGFHDRDLMLRKALYALMEKGVEKEALKRRWRWQQTQQNKESGLVYTEDEWQKEWNELIKLASSEPRMHLGTNGANCGGVESSEEPVYESLEEFHVFVLAHVLRRPIVVVADTMLRDSGGEAFAPIPFGGIYLPLEVPASQCHRSPLVLAYDQAHFSALVSMEQKENTKEQAVIPLTDSEYKLLPLHFAVDPGKGWEWGKDDSDNVRLASVILSLEVKLHLLHSYMNVKWIPLSSDAQAPLAQ
B4: FireflyLuciferase-P2A-anti-syngap1_FLX00157-Cezanne (other)
chain: MEDAKNIKKGPAPFYPLEDGTAGEQLHKAMKRYALVPGTIAFTDAHIEVDITYAEYFEMSVRLAEAMKRYGLNTNHRIVVCSENSLQFFMPVLGALFIGVAVAPANDIYNERELLNSMGISQPTVVFVSKKGLQKILNVQKKLPIIQKIIIMDSKTDYQGFQSMYTFVTSHLPPGFNEYDFVPESFDRDKTIALIMNSSGSTGLPKGVALPHRTACVRFSHARDPIFGNQIIPDTAILSVVPFHHGFGMFTTLGYLICGFRVVLMYRFEEELFLRSLQDYKIQSALLVPTLFSFFAKSTLIDKYDLSNLHEIASGGAPLSKEVGEAVAKRFHLPGIRQGYGLTETTSAILITPEGDDKPGAVGKVVPFFEAKVVDLDTGKTLGVNQRGELCVRGPMIMSGYVNNPEATNALIDKDGWLHSGDIAYWDEDEHFFIVDRLKSLIKYKGYQVAPAELESILLQHPNIFDAGVAGLPDDDAGELPAAVVVLEHGKTMTEKEIVDYVASQVTTAKKLRGGVVFVDEVPKGLTGKLDARKIREILIKAKKGGKIAVTRLKGSGATNFSLLKQAGDVEENPGPRSGTGSSGQVQLVESGGGLVQAGASLRLSCAASERTFGHYAMGWFRQAPGKEREFVATISWKGGTTGYAHSVKGRFTISRDSAKNMVYLQMNSLKPEDTAVYYCAARNTMSGSMSSSAYPYWGQGTQVTVSSGGGGSGGGGSGGGGSGGGGSQVQLVESGGGLVQAGASLRLSCAASERTFGHYAMGWFRQAPGKEREFVATISWKGGTTGYAHSVKGRFTISRDSAKNMVYLQMNSLKPEDTAVYYCAARNTMSGSMSSSAYPYWGQGTQVTVSSGAPGSGPPSFSEGSGGSRTPEKGFSDREPTRPPRPILQRQDDIVQEKRLSRGISHASSSIVSLARSHVSSNGGGGGSNEHPLEMPICAFQLPDLTVYNEDFRSFIERDLIEQSMLVALEQAGRLNWWVSVDPTSQRLLPLATTGDGNCLLHAASLGMWGFHDRDLMLRKALYALMEKGVEKEALKRRWRWQQTQQNKESGLVYTEDEWQKEWNELIKLASSEPRMHLGTNGANCGGVESSEEPVYESLEEFHVFVLAHVLRRPIVVVADTMLRDSGGEAFAPIPFGGIYLPLEVPASQCHRSPLVLAYDQAHFSALVSMEQKENTKEQAVIPLTDSEYKLLPLHFAVDPGKGWEWGKDDSDNVRLASVILSLEVKLHLLHSYMNVKWIPLSSDAQAPLAQ

This test concerns the target T1, SYNGAP1-nanoluc-alfa-tag-fusion. In words: cell-based or functional assay.
In the case of B1, the “increase in SYNGAP1 expression over the control” value (shortened to “increase in SYNGAP1 expression”) is no less than 2 fold.

Turning to B2, the “increase in SYNGAP1 expression” value is no less than 2 fold.

Consider B3, for which the “increase in SYNGAP1 expression” value is no less than 2 fold.

Turning to B4, the “increase in SYNGAP1 expression” value was no less than 2 fold.
